First the molecules themselves.
B1: P1AF1284 H2L2 anti-idiotypic IgG1 (antibody, V domains shown)
VH: QVQLVQSGSELKKPGASVKVSCKASGYTVTDYSMNWVRQAPGQGLEWMGWINTETGEPRYTDDFTGRFVFSLDTSVSTAYLQISSLKAEDTAVYYCAREGDYDVFDYWGQGTLVTVSS
VL: DIVMTQSPDSLAVSLGERATINCKSSKSVSTSSYSYMHWYQQKPGQPPKLLIKYVSYLESGVPDRFSGSGSGTDFTLTISSLQAEDVAVYYCQHSREFPYTFGQGTKLEIK
B2: P1AF1283 H1L2 anti-idiotypic IgG1 (antibody, V domains shown)
VH: B1 VH with T65K
VL: B1 VL
B3: P1AF1281 H1L1 anti-idiotypic IgG1 (antibody, V domains shown)
VH: B1 VH with T65K
VL: B1 VL with K24R, S25A
B4: P1AF1286 H3L3 anti-idiotypic IgG1 (antibody, V domains shown)
VH: B1 VH with D62Q, D63G, T65K
VL: B1 VL with K24R, S25A, H94Q
B5: P1AF1287 H7L5 anti-idiotypic IgG1 (antibody, V domains shown)
VH: QVQLVQSGAEVKKPGASVKVSCKASGYTVTDYSMNWVRQAPGQGLEWMGWINTETGEPRYTDDFKGRVTMTRDTSISTAYMELSRLRSDDTAVYYCAREGDYDVFDYWGQGTLVTVSS
VL: B1 VL with K24R, S25A, K53Y
B6: P1AF1285 H3L2 anti-idiotypic IgG1 (antibody, V domains shown)
VH: B1 VH with D62Q, D63G, T65K
VL: B1 VL

Substitutions are numbered along the chain they refer to.

One assay concerns the target biotinylated anti-human CD3ε antibody (capture surface of Example 6). Briefly: SPR Biacore T200; IgG 1 ug/ml over captured biotinylated anti-human CD3ε antibody, normalised to anti-human IgG surface and to the unstressed sample; sample stressed 14 d/37° C. pH 7.4. A general note: SPR reads the build-up and loss of mass on a sensor chip optically.
For the molecule B1, the Relative active concentrations (%) stood at 93%.
The molecule B2 returned a Relative active concentrations (%) of 94%.
Molecule B3 yielded a Relative active concentrations (%) of 93%.
Same read-out and setting: to B4 belongs 87%; to B5, 80%.
Still for that read-out and setting: to B6 belongs 94%.

The target is the same in a further assay. Briefly: SPR Biacore T200; IgG 1 ug/ml over captured biotinylated anti-human CD3ε antibody, normalised to anti-human IgG surface and to the unstressed sample; sample stressed 14 d/40° C. pH 6.0.
The molecule B1 returned a Relative active concentrations (%) of 98%.
On the same count and under the same terms, next, B2: 97%; B3: 99%.
Consider B4, for which the Relative active concentrations (%) turned out to be 97%.
On to B5, for which the Relative active concentrations (%) turned out to be 98%.
On the same count and under the same terms, to B6 belongs 97%.

The record behind these values is US20260035462A1.
